This is an account of results in US20110195083A1.

A value given as a limit tells only on which side of the number the result lay.

Common to all, as to test: cell-based or functional assay
Assay [1] has as its target HIV-1 6535 envelope protein (Env) on pseudovirus (HIV-1 strain 6535).
For assay [2], the target named is HIV-1 BX08 envelope protein (Env) on pseudovirus (HIV-1 strain BX08).
Assay [3] has as its target HIV-1 BaL envelope protein (Env) on pseudovirus (HIV-1 strain Bal).

On to CD4-mimic peptide CD4M33, for which, in assay [1], the neutralization IC50, CD4M33 alone was found to be 0.721 µg/mL; the neutralization IC50, CD4M33 concentration in combination with serum B714 worked out at 0.431 µg/mL; the neutralization IC50, CD4M33 concentration in combination with serum B716 was found to be 0.431 µg/mL; the neutralization IC50, CD4M33 concentration in combination with serum B718 worked out at 0.481 µg/mL. Also, the neutralization IC50, CD4M33 concentration in combination with serum B720 in assay [1] was determined as 0.189 µg/mL. In assay [2], the neutralization IC50, CD4M33 alone was found to be 0.173 µg/mL; the neutralization IC50, CD4M33 concentration in combination with serum B714 was 0.036 µg/mL; the neutralization IC50, CD4M33 concentration in combination with serum B716 was 0.036 µg/mL; the neutralization IC50, CD4M33 concentration in combination with serum B718 was determined as 0.028 µg/mL. Further, the neutralization IC50, CD4M33 concentration in combination with serum B720 in assay [2] came out at 0.014 µg/mL. Also, in assay [3], the neutralization IC50, CD4M33 alone was more than 0.25 µg/mL; the neutralization IC50, CD4M33 concentration in combination with serum B714 stood at 0.048 µg/mL; the neutralization IC50, CD4M33 concentration in combination with serum B716 worked out at 0.057 µg/mL; the neutralization IC50, CD4M33 concentration in combination with serum B718 turned out to be 0.045 µg/mL. For the same substance, the neutralization IC50, CD4M33 concentration in combination with serum B720 in assay [3] came to 0.017 µg/mL.
